US20100009439A1

What was measured:
Conditions in all cases: remark: other sources report otherwise
[1] = biological target: T1, purified full-length human IGF-I receptor (human), P08069; assay: ELISA titration on biotinylated human IGF-I receptor captured on streptavidin; non-linear regression for one-site binding
[2] = biological target: T1, purified full-length human IGF-I …; assay: ELISA, hybridoma supernatant on coated purified human IGF-I receptor
[3] = biological target: T1, purified full-length human IGF-I …; assay: ELISA titration on human IGF-I receptor, similar to that of the whole antibody

| Kd [1] | absorbance units (405 nm) (absorbance units) [2] | Kd [3] | Binder |
| --- | --- | --- | --- |
| 0.1 nM | 1.2 | – | murine EM164 antibody (antibody, V domains shown, here or on the partner: biotinylated with PEO-maleimide-biotin in the captured format) VH: QVQLQQSGAELVKPGASVKLSCKASGYTFTSYWMHWVKQRPGQGLEWIGEINPSNGRTNYNEKFKRKATLTVDKSSSTAYMQLSSLTSEDSAVYYFARGRPDYYGSSKWYFDVWGAGTTVTVS VL: DVLMTQTPLSLPVSLGDQASISCRSSQSIVHSNVNTYLEWYLQKPGQSPKLLIYKVSNRFSGVPDRFSGSGSGTDFTLRISRVEAEDLGIYYCFQGSHVPPTFGGGTKLEIKR |
| – | – | 0.3 nM | Fab fragment of EM164 antibody (Fab, V domains shown, here or on the partner: biotinylated with PEO-maleimide-biotin in the captured format) VH: QVQLQQSGAELVKPGASVKLSCKASGYTFTSYWMHWVKQRPGQGLEWIGEINPSNGRTNYNEKFKRKATLTVDKSSSTAYMQLSSLTSEDSAVYYFARGRPDYYGSSKWYFDVWGAGTTVTVS VL: DVLMTQTPLSLPVSLGDQASISCRSSQSIVHSNVNTYLEWYLQKPGQSPKLLIYKVSNRFSGVPDRFSGSGSGTDFTLRISRVEAEDLGIYYCFQGSHVPPTFGGGTKLEIKR |
